Assay: Rheological measurements on bovine vitreous
Settings: trypsin treated vs no treatment and PBS buffer; FIG. 3A
Text: The synthetic peptidoglycans according to the present disclosure can be tested as follows. Viscoelastic properties can be measured using a rheometer, for example the TAInstruments ARG2 rheometer. A cone and plate geometry or a parallel plate geometry can be used. Vitreous humor (e.g., bovine) can be placed within the geometry. The temperature can be controlled and frequency sweeps can be performed from ranges of about 0.1 Hz to about 100 Hz (e.g., 1 Hz) and storage, loss, and complex modulus can be measured at an oscillatory shear stress between about 0.1 Pa and about 10 Pa (e.g., 10 Pa). Temperature: 37° C.

Substance: trypsin
- viscosity of bovine vitreous: lower viscosity
